In PMC8208975, “Extracellular mRNA transported to the nucleus exerts translation-independent function”:

T1: ZC3H12D short isoform (hZC36) (Homo sapiens, UniProt A2A288-4 1-321)
T1 sequence: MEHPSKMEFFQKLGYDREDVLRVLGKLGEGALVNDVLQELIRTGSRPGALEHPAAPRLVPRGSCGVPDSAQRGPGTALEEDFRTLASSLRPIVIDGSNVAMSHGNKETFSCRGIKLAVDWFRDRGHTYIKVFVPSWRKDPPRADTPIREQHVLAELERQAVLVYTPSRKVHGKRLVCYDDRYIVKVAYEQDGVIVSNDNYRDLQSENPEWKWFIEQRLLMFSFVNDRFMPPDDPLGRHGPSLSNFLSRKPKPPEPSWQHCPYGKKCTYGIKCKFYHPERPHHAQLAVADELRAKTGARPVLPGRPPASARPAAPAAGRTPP


Assays:
[1] = system: ZC3H12D short isoform (hZC36), Alexa Fluor 488 labeled (Homo sapiens); test: FCS; conditions: 1 nM protein, 10 nM RNA; EMSA: 100 mM HEPES pH 7.3, 200 mM KCl, 10 mM MgCl2, 10 mM DTT, glycerol, tRNA; FCS: protein diluted in 50 mM HEPES pH 7.4, 100 mM NaCl; temperature not given
[2] = biological target: T1, ZC3H12D short isoform (hZC36); test: EMSA; tRNA; very rough estimate by authors; EMSA: 100 mM HEPES pH 7.3, 200 mM KCl, 10 mM MgCl2, 10 mM DTT, glycerol, tRNA; FCS: protein diluted in 50 mM HEPES pH 7.4, 100 mM NaCl; temperature not given; conditions: protein: recombinant; tags: C-terminal myc-FLAG (pCMV6-Entry)

Row | Molecule | Kd [1] [nM] | Kd [2] [nM]
1 | IL1b-mRNA full length | 1 | –
2 | bactin-mRNA | 1 | –
3 | UAUUUAUUUAUGUAUUUAUUGAUUGGUUGAUCUAUUUAAGUUGAUUCAAG (ssRNA) [EMSA probe 5] | – | ~31.6
